Tests used:
[1] = substrate: N[C@@H](CCC(=O)O)C(=O)O; test: transamination kinetics with CRM M as acceptor; crystal structure of external aldimine; format: biochemical, Actinoalloteichus sp. WH1-2216-6; settings: 0.2 mM CRM M, 80 μM PLP, 4 μM CrmG, 200 mM Tris pH 7.5, 30 °C, covalent PLP-Glu external aldimine in crystal
[2] = substrate: NC(=O)CC[C@H](N)C(=O)O; test: transamination kinetics with CRM M as acceptor; crystal structure; format: biochemical, Actinoalloteichus sp. WH1-2216-6; settings: 0.2 mM CRM M, 80 μM PLP, 4 μM CrmG, 200 mM Tris pH 7.5, 30 °C, no external aldimine in crystal
purified protein = substrate: C[C@H](N)C(=O)O; test: purified protein; settings: 0.2 mM CRM M, 80 μM PLP, 4 μM CrmG, 200 mM Tris pH 7.5, 30 °C, covalent PLP-Ala external aldimine in crystal

B1: CrmG (Actinoalloteichus sp. WH1-2216-6) (protein)
chain: MTHPSGEPVYADAVLNGWLTSMGLGVEYVRAEGNTVYYLDDEGREVPVLDHACGFGSLIFGHNHPEIIAHAKAALDAGTVVHAQLSRQPRANQISRILNDIMRRETGRDDRYNAIFANSGAEANEICMKHAELERQERITALFAEIDAELDTAREALTTGTATLDTASLPLVGGGAGDVDGVIADIHRHNDERRAERPLFLTLDGSFHGKLVGSIQLTQNEPWRTPFTALSSPARFLPADEPELIGKIVEDERRSVLTLSLDKDTVRVVERDFPVVAAIFVEPVRGGSGMKTVTPELAEELHRLRDTLGCPLVVDEVQTGIGRTGAFFGSALLGIRGDYYTLAKAIGGGIVKNSVALIRQDRFLPAMEVIHSSTFAKDGLSASIALKVLEMVEADGGRVYQRVRERGQRLEAMLESVRADHSDVVSAVWGTGLMLALELRDQSNATSQAIREKAAHGFLGYVLAGFLLREHHIRVLPAGPRSGFLRFSPSLYITDEEIDRTETALRSLFTALRDQDGDRLVLS
notes: pET28a, N-terminal His-tag and 14 additional vector residues; expressed in E. coli BL21; dimer (114 kDa by DLS)
- Km [1]: 80.02 µM
- Km [2]: 182.70 µM
- Km (purified protein): 405.10 µM

Reference: article PMC7438487, “Structural studies reveal flexible roof of active site responsible for ω-transaminase CrmG overcoming by-product inhibition” (Communications Biology, 2020)
